Data from publication PMC9861716.

Target: His-Fc-G67 polypeptide
Assay: co-sedimentation; Herceptin on Herceptin-modified liposomes (Her-Lipo), evaluated semi-quantitatively by SDS-PAGE and silver staining; no data shown

For Herceptin (trastuzumab) (antibody), the amount of Herceptin on Her-Lipo per 100 µg lipid (µg of Herceptin per 100 µg lipid) was 0.4.
